Data as given in the supplement of paper PMC9170038.

Test system: MS2 coat protein
Test: apparent KD of MS2 coat protein; designed switch direction (-1 OFF switch, 1 ON switch): -1; higher = weaker reporter binding
In short: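 Each step of the titration lasted 0.8–1.5 h at the lowest concentration and 10–20 min at the highest. The protein, SNAP-549-labelled MS2 coat protein, went from 0.7 or 1.5 nM doubling to 3 µM over RNA switches transcribed on Illumina chips by stalled E. coli RNA polymerase. Normalised cluster fluorescence was curve-fitted, and the per-design median over clusters is given as apparent KD.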

[1] = input ligand: microRNA oligo, concentration not stated
[2] = Eterna round: R95, input ligand: FMN 200 uM
[3] = Eterna round: R95, input ligand: microRNA oligo, concentration not stated
[4] = Eterna round: R95, input ligand: none

Sequence	apparent KD of MS2 coat protein (input ligand: FMN 200 uM)	apparent KD of MS2 coat protein [1]	apparent KD of MS2 coat protein (input ligand: none)	apparent KD of MS2 coat protein [2]	apparent KD of MS2 coat protein [3]	apparent KD of MS2 coat protein [4]
UGUUGUCGCGUAGGAUAUGGCCAACAGGCCCUAGGAUAUGGGAAACCAGAAGGAGCGCCAACAGGCGAGAAGGACGGGACAACU [pwkr exNG2 2xF7 2xFMN.19] (Eterna round: R96, puzzle: Exclusion NG 2)	734 nM	451 nM	268 nM			
AUCAGCUCGUCAGGAUAUACAUGAGGAUCACCCAUGUGGUCAUUAGCAGCUUCGGCUGCAUUAAUGUAGAAGGGACGAGCUGAU [ENG2/8-B2] (Eterna round: R96, puzzle: Exclusion NG 2)	544 nM	522 nM	502 nM			
AUGUAAGCGGAGGAUAUCUGGUGGAUACAGAUGGGAGAAGGUCGCACAUGAGGAUCACCCAUGUCGCAGAGAUG [Eternabot (L2) Solution 83] (Eterna round: R97, puzzle: Exclusion 6)	44.1 nM		55.3 nM			
UGAUCUAGCGGAGGAUAUACAUGAGGAUCACCCAUGUAGAUAACUGCACCGUAGUGUAGUAUUGUGUAGAAGGCCGCUAGAUCU [JL ENG2 3.65] (Eterna round: R96, puzzle: Exclusion NG 2)	26.8 nM	11.4 nM	14.2 nM			
GUCCGGCAUGUAGGAUAUGGAUCCGAUUAGGAUUUAGAAGGACAUGAGGAUCACCCAUGUGCAUUUAAUUAGUCAUUACCGGAU [EXclNG1-LROPPY05] (Eterna round: R96, puzzle: Exclusion NG 1)	17.4 nM	13.6 nM	17.9 nM			
GGUUGGCGAGGAUAUACAUGAGGAUCACCCAUGUGAGAGAAAGAAGUGAGAACGAAAAGUAGAAGGCGCUGACG [salish99_ex3_r3_058] (puzzle: Exclusion 3)				48.1 nM	65.8 nM	66.1 nM
AUAAACGCAGGAUAUACAUGAGGAUCACCCAUGUAAAUUUUAAAAUAAAUAAAUAGAUGUAGAAGGGCGAAAUA [Lollin - Gamma 1] (puzzle: Exclusion 3)				37 nM	28.2 nM	33.5 nM
GGACAGGGAGGAUAUACUUGAGGAUCACCCAAGUCGUAUAAUCGAUGAACACGCCGAAGUAGAAGGCCCAAAAG [Esorgebi] (Eterna round: R97, puzzle: Exclusion 3)	403 nM		131 nM			
AAUAACAGAGGAUAUACUAUUUUAUGUGUUUGUUGUUUUGAACAUGAGGAUCACCCAUGUAGAAGGCUGAAUGA [JMF 69] (puzzle: Exclusion 2)					25.3 nM	
CUCAUGUGAGGAUAUGUGAUCAACCUUCUAUAUAGAUGAUUACAGAAGGCACAUGAGGAUCACCCAUGUAGAUC [Ex4 - 3 - 23] (puzzle: Exclusion 4)					21.1 nM	
GGAGAGAUAUAGGAUAUGGGAGGGAGGACCGGACCAGAAGGAUAGACAUGAGGAUCACCCAUGUAGAGAUCCUC [AK-MS2ROC-r4-exclusion6-6.1] (Eterna round: R97, puzzle: Exclusion 6)	302 nM		270 nM			
AAUUAAUAUCAGGAUAUGACGUGCUGCGGCACGUCAGAAGGGAUGACAUGAGGAUCACCCAUGUGAUCAAUUAA [E6/1-A3] (Eterna round: R97, puzzle: Exclusion 6)	114 nM		22.1 nM			
AGCUUUUUGCUCGUCUUAUACAUGAGGAUCACCCAUGUAUUGGACCACAUCGAUAGAUGUGGGCCAAGAAGCAUGGG [Omdei Mir OFFv1 C2] (Eterna round: R97, puzzle: Sensor, turn-off variant 1)	133 nM		176 nM			
AGUAGGUCUACCUUGGUGGAUCUGCAUUUUUGCAGGUGUACAUGAGGAUCACCCAUGUCCUCAUUUGCUCGUCUUAU [JL turnoff v2 99.30] (Eterna round: R96, puzzle: Sensor v3, turn-off variant 2)	555 nM	599 nM	508 nM			
UUAGAUUGAGGAUAUACAUGAGGAUCACCCAUGUCGAUACCAAUGGUGUUGACCGUCAGUAGAAGGCGAAUUGA [Eternabot (L1) Solution 87] (Eterna round: R97, puzzle: Exclusion 3)	163 nM		123 nM			
CAUUGUUAUCGAGGAUAUCGUAUUGAGAUUCUACGAGAAGGCGGACUAAACAUGAGGAUCACCCAUGUGAGACGGAUGCUUGGG [Ex NG1 #32] (Eterna round: R96, puzzle: Exclusion NG 1)	36.7 nM	22.3 nM	25.7 nM			
ACUGGUCGAGGAUAUACAUGACGUGCUUCGGCACGAGAUCUACAUGAGGAUCACCCAUGUAGAAGGCGACCAGU [E2/11-A2] (Eterna round: R97, puzzle: Exclusion 2)	735 nM		65 nM			
GACCGGACGUGGUCAGGUAACAUGAGGAUCACCCAUGUAGGUCUAGGAACAAGCCUUUUGUAGGCUCGUCUUAUAAA [JR_SV3TOV1_Sub059] (puzzle: Sensor v3, turn-off variant 1)				47.5 nM	36.1 nM	63.6 nM
UCAAGUUUAGAGGAUAUAUAAUAUUUAUUAACUAUAGAAGGCUAUACAUGAGGAUCACCCAUGUAUAUUGGGAU [JR_Ex6_Sub066] (Eterna round: R97, puzzle: Exclusion 6)	40.6 nM		26.1 nM			
AGCUAGUGCCGAGGAUAUACAUGAGGAUCACCCAUGUAGCCGUGAGGCUUUGUCUCACGGGAUAUGUAGAAGGCGGCGUUGGCA [JL ENG2 1.53] (Eterna round: R96, puzzle: Exclusion NG 2)	34.1 nM	11.8 nM	18.3 nM			
ACAUGAGGAUCACCCAUGUGACAAUAAUGGCUGAUACAGAGACAGGAUAUACGUGAAUAUCUAACGUAGAAGGGUCAUGACUGG [Deportation 70 - Jieux - Exclusion NG 3] (Eterna round: R96, puzzle: Exclusion NG 3)	30.5 nM	35.8 nM	41.9 nM			
ACAUUACAUGAGGAUCACCCAUGUGAGGAUAUGGAGCGGUAGUGUCCUGUCGCGUACACCAGAAGGCGCGGGUG [1st #48] (Eterna round: R97, puzzle: Exclusion 1)	282 nM		90.6 nM			
GUGUACAGAGGAUAUAUAUGAGCUAGGAAACUAGCAAGAUCACAUGAGGAUCACCCAUGUAGAAGGCUGUACAC [Ex2: 735] (Eterna round: R96, puzzle: Exclusion 2)		102 nM				
UUUUUUGGGCAAGGAUAUCCUGUGCGGUUCCGGCUCGUGUCUGUCACAUGAGGAUCACCCAUGUGGGAGAAGGUGCCUGCGGUU [Design 84] (Eterna round: R96, puzzle: Exclusion NG 2)	15.1 nM	10.8 nM	15.4 nM			
UUCUGGACAGGAUAUGUACUUGAGCACUUGAGGAUCACCCAAGUCCUCAAGUACUCAGGCACAGAAGGGUUAAUUU [jl-ex5.4.65 ViennaUCT mod] (Eterna round: R97, puzzle: Exclusion 5)	110 nM		71.9 nM			
